Numbering of substitutions follows the chain as printed.
Legend:
[1] = system: T1, MBP-ZC3H14 full-length wildtype (residues 1-736)
T1 sequence: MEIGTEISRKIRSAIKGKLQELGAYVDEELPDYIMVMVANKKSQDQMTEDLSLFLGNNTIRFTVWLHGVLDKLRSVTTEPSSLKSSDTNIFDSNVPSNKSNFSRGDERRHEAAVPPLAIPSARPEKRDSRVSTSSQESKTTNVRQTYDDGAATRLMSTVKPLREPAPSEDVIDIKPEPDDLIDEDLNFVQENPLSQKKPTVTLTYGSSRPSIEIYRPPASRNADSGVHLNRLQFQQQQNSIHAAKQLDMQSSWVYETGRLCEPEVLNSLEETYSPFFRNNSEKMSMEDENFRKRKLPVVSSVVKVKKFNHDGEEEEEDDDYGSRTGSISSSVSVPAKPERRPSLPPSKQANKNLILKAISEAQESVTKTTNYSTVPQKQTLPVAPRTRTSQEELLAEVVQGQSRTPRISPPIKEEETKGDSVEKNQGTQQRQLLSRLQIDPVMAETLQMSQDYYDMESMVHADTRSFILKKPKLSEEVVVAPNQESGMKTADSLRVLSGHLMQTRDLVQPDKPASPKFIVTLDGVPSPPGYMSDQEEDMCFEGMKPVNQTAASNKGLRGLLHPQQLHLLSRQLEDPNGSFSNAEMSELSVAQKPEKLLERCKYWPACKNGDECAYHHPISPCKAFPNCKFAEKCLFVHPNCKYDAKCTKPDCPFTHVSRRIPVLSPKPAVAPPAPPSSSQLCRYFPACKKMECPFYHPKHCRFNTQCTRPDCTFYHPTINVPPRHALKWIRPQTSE

[2] = system: T2, MBP-ZC3H14 full-length S475A mutant
T2 sequence: T1 sequence with S475A

Q: “Cdk13 (694-1039) / Cyclin T1 (1-272, T149E) kinase complex” was tested. Which anti-thiophosphorylation immunoblot [1] did it give?
A: Its anti-thiophosphorylation immunoblot is “CDK13 directly phosphorylates ZC3H14 WT but not ZC3H14 S475A”.

Q: And the “in vitro kinase assay P32 counts per minute minus time zero” value [1]?
A: Its value is “CDK13 directly phosphorylates ZC3H14 WT but not ZC3H14 S475A”.

Q: And the anti-thiophosphorylation immunoblot [2]?
A: The anti-thiophosphorylation immunoblot was “CDK13 directly phosphorylates ZC3H14 WT but not ZC3H14 S475A”.

Q: What about the “in vitro kinase assay P32 counts per minute minus time zero” value [2] of the same substance?
A: Its value is “CDK13 directly phosphorylates ZC3H14 WT but not ZC3H14 S475A”.

Reference: US20250327050
